Results on 13 sequences are retold here after the DeepSol protein solubility set.

This data set can be described thus: soluble on expression in E. coli; label from the status in PepcDB or PDB records.
Turning to “MAHHHHHHMFVRSFCFLRKYGSKSKTPDLKTSFTKTTNFRKAEKISITTTDGEIVKGRGKIRRRTHSALKEAIGAMEHPAIWLWYPWRMNPEPPTPHMPQRRALKNVHGAVFNDLTPVQKKRQEQMLYGVNIPETRQMKFEEQHPLLAGALRKLEGQPKGFPFWYRKYPTRRHAYEYRFSIPVEMLDGYNDDVKKALSKGMMSIQEKQFAQEAMYMERYAEHDFDTTSPAVLAVKRALKCRVLRNHLLTNPHNNIIKTVLANTERKLNHALRRLRKVDFKKYWEIIRDHDVQDILQPPNLVTYRQGSYWKYDWNAGLAISTNLADVMDPRGLNGCVETGRSRSEVARDLGLSYTRPLHENEKKQLSHQAVYYERLAKFKMEQPEAARAMERERFVRKFSGMFVKMDIRSGAPDFPSTYRRLLGTKVVRWASKRHGPN”, the “soluble on expression in E. coli” value is given as “not soluble”.

With “MRSLLIALAATVALSLPARADEVTVAVTAIVEHPALDAARDGVKDALAAAGYKEGENLKFIYESAQGNPATAAQIARQFAGEAPSVIVPISTPSAQAVVSSTRDIPVVFTAVSDPLGAQLVKDMEKPGGNVTGLSDLSPVAEHVALIKEILPNVKTIGYLYNSGEANSVSLLAVLKEEAEKAGLSVIESAATKSAEVQGAARALVGRADAIYIPTDNTIISALEGAVAVAEESKLPLFTADTDSVSRGAVAALGFNYYDVGKQTGEVVVRVLKGENPGDIAVKVAAGTDLVINKGAATRMGVTLPESVVGRATRTIE”, the “soluble on expression in E. coli” value is “not soluble”.

“MSSSTTDDDSCSYFFFRQACLIPTPSVPTHPSVSIKIYPPFAEFIDFGGASRHILTNNGTCRIVFKVKCSNNLVFKVSPVYAFLDPGATAELQVLRREGPPKHDKLIISLKEAKKGDKDPRVTFNDSTHTTHKHILPLLTRIVEEQ”: the “soluble on expression in E. coli” value is listed as “not soluble”.

On to “MVKLENKPTIISTGTIVGPKEGEGPLKDYFDMIMTDDLYGEKTWELAESKMVETASQQAIQKAGKKLSDVNYMLGGDLINQIVPASFAARELAIPFLGIYGACSTMAEGLCIGSMLIDGGFADLVLSGTSSHYCTAERQFRFPLELGNQKPMTAQWTVTGAGSVLLAPNGDGPKVKYVTVGKVIDEGIDDGNNMGPAMAPAAIDTIYSYFEDTNDDPNSFDIIATGDLGTLGKQIAEDFLKEKGVDISKVYTDCGIEMFNLKEQDVHCGGSGCGCSATVFAGYIYDKLRKKEFNKVMLVSTGALLSPTSTLQKQTIPCVAHAVVIVNELEHHHHHH”, for which the “soluble on expression in E. coli” value is reported as “not soluble”.

“MGSDKIHHHHHHMEIGQRFLVQLEETGQYFVNYQDGILIELAFDATVGKQSPAFSDLEHTAAYLEEHLRSHQTQALLLASKIHAYDASPVERITQMISIHSFFSTHRLVHPLNAYSTALLISRLEATDPQLQRTVELYRLAKKSHRFIVSPLLVSFLFLNALRRGEIATIHARIEATYDILKKRFGRSQQTYVTALLLALLPEDDQATYIAQVVQSRNLYRKHGIPLSFHGLLALLGDPRMHQTALEGLADQFRNTPHFKYRKDLVFLTAVRLYLADHPTLHQLFAPFSPSTLDDTSNLLPVYLFPVDLTDTSHATDGGMTDGGFDGGDGGGGGGD”: the “soluble on expression in E. coli” value is reported as “not soluble”.

With “MDPTETFARMNKVMHQTLKYVKEVESINFSSRGVIDFNGEVMEDHQRIFLSVCTSVFANFSFSCQMDVEKLLSFLMALFENYSKENAYHNALHAADSVQMLFLILREKPATLIFTENEVILAFLATLSLGFVHPGVSNAFLARIDHPLVLVYGDMTTQQSAGLTALLYLLNREENRFIDLFANSGTQPFSQFLREILVETVLGTAPRLRSSLLRDLEKVAVADAVELNDIPILLAAVVILADNALALRPHAQFVNLAGLMVTEWLREAYEEEQRGMDPLVPNLRKQIYENGLGMAVDYCKVWLRPLITNIRALVPQDLYDNMEGNTEAPSMSEIQDFLVHLDSSNERWNDGSVPVIDIIRRITMHATSLDRKASKRAILNAASN”, the “soluble on expression in E. coli” value is recorded as “not soluble”.

“MKITFLGAAKTVTGSCFFVETASTKFLVDCGMFQGYSKNNALNEEEFPFNVEELDYIFLTHAHIDHSGRIPRIYIKGFRGQIIATKATVELCAIMLPDSGHIQEYENEWTNRKRLRAGKPPVEPLYTYQDAVNCLELFRKVSYDEVIKINDEIRVRFRDAGHILGSAIIEMWINERGEEIKIVFSGDLGNKDIPILRDPSIIESADYLVIESTYGNRLHNERVDKAEYFLNLINSTIEKGGNVIIPSFAAGRTQELIYELNKKKEVYDEKLKMLFATPVYIDSPMAISATEVFRNNLDCYDEEAREYIENGDNPLDFPGLQFTRTAEESKALNERKESSIIIAASGMCEAGRIRHHLKHNLWRKDSTIIFVGYQAEGTLGRRLLDGAKKVRLFGEEISVEARIEMIEGFSGHADKEGLLKWIERFNRKPKKIFIVHGEEDAMIEFSEEINRRFNIETVIPSRGESFILNAHNVIAIDEKVRPDNSFRILQVVEKLENIKEEVEELSYILKSDLKQDKTDLELDELMAKLKNIEKSILEALK”: the “soluble on expression in E. coli” value is given as “not soluble”.

On to “MRLWVLTLVQAHFAILAVADTTVAVEETTKAANETTTPDGPHADCFLCAPTVQCGETVEGDYSSGEVNVLLMKPMEDNDYFIVKGEVFPNAMKIFIDIYKDLSVGKAQEGGNNQPRLLTFEHYFDTNLTFSRSNLHGEGVPDSFREATLPDAIKQKKPWTLMFKMKDGLSAFETGDETGWFNNDIPWNGTATTQSFNIRGGWKTTSIQ”, for which the “soluble on expression in E. coli” value is listed as “not soluble”.

For “MSLKIGIDVGSTTAKLVAVDENDNLLFSKYERHNAKAKETILSFLKELLSEIGDKDISVRITGSIGMGISEKCSLPFVQEVVAAAKAIQKDYSHVTSMIDIGGEDAKVVFFNDAEATDLRMNGNCAGGTGAFIDQMAIILGVNIDELNQLAMNATQVYPIASRCGVFCKTDIQNLIAKNVSRENIAASIFRAVAVQTVVTLAHGCDITTPVLFCGGPLTFIPALRKAFIDYLSLDEKEIILPANGTLLPALGAALFHLDKEDYCKLSHLIDKEGHHHHHH”, the “soluble on expression in E. coli” value is reported as “soluble”.

“MEGAVIKVIGLGGAGNNAVNRMIEAGLSGVEFIAANTDAQVLAKSLADHRIQLGEKLTRGLGAGANPEIGEKAALEAEDLIAEALEGADLVFITAGMGGGTGTGSAPVVADIAKRLGALTVAVVTRPFSFEGPKRMRAAEEGIKKLKERVDAMVVVQNDRLLSAVDKKMTLKDAFLIADRVLYHGVKGITDVINLPGLINVDFADVKALLEGAGQVLMGIGAGRGENRVEEAAKSAIHSPLLERSIEGAKRLLLNVVGSEELSLMEAAEVVERIREATGHEDVDILYGVTYDERAQDELRVILIAAGFAESTVVPRPARPVDFPTGHVDLTNYDIPAFIRYGDGDYPPRRGN”: the “soluble on expression in E. coli” value is reported as “soluble”.

For the sequence “MGEYIRYQGEEALGLIETLGMVPAIYGADSMLKAANVQLISYENVGSTLVTVMVKGDVAAVQASVDAGSVAAAGIGKLTAHNVMPRPIRPIGDIVSVHAITDDAPAGDGSRPRAMGLIETFGIVYVLEAADAMLKTADVELIGYENVASGYISVLVQGDVAACQAAVAAGVKAVQAMGTDVYSSVVIPTPHPDVAKITARYALENLLP”, the “soluble on expression in E. coli” value was “not soluble”.

On to “MFVDREEELKALNEKLDSNNFEFIVIYGRRRIGKTKLALKSVENREHIYYLAVEGDNLKHFKRYASKVEPTIEYAKEDWEAYFNFLKDKIIIIDEFPNLIKENPNVLSLFQRIVDIHLKNTKTKLIILGSSISMMGEKVLSYKSPLYGRKTGVLKIKPLKFKHLKEFFPKAIWEELVEIYGFADGIPYYLEKVKLPFWDYLDKEIKRVDSFLRYEVDFLMKYEFEEPTTYKKILEAIAFGNHTLGEIKNYLGFKHSDLTPYLKNLIEVEFIERQTPITESVKSKKGRYYIKDNFIAFYFRYIFPNLSAIEEGIFDIEEIKADYNQYLGFVFEKVAKEFLIELNKMNKLPFKFLKIGRWWHRGEEIDLIALNDNDKKALFVEVKWKDLKDRDVKKIYRDLYRKSKLVGLDDYEKYYAIVGKKIESKENGDCLLFDLEDFSLEHHHHHH”, for which the “soluble on expression in E. coli” value is given as “soluble”.

As for “MAHHHHHHMIYLIDNEDMIYIEFYRKKDCTFVYKFFNDTLPTGSTLSTSDVSAEYANIKYEINNNSCTVYSCDYSCLLKHKDYITIINNVLDKNLSDEILENYKNEKWLMYTKNDEEKLNLVIESNTLLRIKGKLRHEIIFGIPKKKKIQMQDKLMDRKNSYLVIFRFIREDNIKNFVTQKIKNKIPQNERQEKDCVPINVNEYTSEKLEKMYVLDVYNQIALHFGHTRAYEQEENVVGNRKFDSQDIFVPWYFQQQYKTEGYDDDAEGEGEEEPEKENEKEKEESHKFKPVKKGNMFKILKMKFFFFFYLLHNFRNIYIYNL”, the “soluble on expression in E. coli” value is listed as “soluble”.
